From publication PMC6461802, “Coupling of ssRNA cleavage with DNase activity in type III-A CRISPR-Csm revealed by cryo-EM and biochemistry” (Cell Research, 2019) come the findings set out here.

A word on the stoichiometry N: it is a count of units in the complex or per binding partner.

Data set [1] concerns the target T1, Cas10 (Csm1);Csm2;Csm3;Csm4 (Streptococcus thermophilus …, UniProt A0A0A7HFE1;A0A0A7HIX1;A0A0A7HIF0;A0A0A7HGA1 1-758;1-121;1-220;1-299, |||).
T1 sequence 1: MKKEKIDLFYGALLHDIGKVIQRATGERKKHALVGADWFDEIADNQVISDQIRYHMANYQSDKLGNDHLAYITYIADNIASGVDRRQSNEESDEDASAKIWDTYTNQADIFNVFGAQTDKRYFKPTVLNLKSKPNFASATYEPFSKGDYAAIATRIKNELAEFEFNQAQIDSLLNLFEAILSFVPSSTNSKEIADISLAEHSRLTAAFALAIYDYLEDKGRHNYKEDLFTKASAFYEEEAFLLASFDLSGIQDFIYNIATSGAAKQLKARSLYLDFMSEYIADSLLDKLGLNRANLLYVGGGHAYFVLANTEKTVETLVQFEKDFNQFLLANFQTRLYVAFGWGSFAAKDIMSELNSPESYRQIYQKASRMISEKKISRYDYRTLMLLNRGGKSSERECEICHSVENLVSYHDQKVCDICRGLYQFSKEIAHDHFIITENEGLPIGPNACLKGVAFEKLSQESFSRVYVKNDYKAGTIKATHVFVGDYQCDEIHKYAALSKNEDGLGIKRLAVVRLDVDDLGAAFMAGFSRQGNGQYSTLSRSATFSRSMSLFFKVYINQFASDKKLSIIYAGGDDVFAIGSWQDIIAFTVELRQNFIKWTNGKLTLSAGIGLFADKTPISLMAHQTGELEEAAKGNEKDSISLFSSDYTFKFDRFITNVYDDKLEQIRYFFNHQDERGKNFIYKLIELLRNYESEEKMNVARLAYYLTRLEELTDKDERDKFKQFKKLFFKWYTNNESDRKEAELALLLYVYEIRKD
T1 sequence 2: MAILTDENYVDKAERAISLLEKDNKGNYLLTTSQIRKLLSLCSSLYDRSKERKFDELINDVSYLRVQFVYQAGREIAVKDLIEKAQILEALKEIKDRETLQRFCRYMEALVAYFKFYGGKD
T1 sequence 3: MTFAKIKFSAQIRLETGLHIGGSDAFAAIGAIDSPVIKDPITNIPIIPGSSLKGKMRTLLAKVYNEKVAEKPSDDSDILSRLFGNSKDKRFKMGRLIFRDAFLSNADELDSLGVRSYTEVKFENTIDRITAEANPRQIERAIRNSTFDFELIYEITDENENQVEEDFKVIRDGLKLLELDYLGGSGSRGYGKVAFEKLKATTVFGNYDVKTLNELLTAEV
T1 sequence 4: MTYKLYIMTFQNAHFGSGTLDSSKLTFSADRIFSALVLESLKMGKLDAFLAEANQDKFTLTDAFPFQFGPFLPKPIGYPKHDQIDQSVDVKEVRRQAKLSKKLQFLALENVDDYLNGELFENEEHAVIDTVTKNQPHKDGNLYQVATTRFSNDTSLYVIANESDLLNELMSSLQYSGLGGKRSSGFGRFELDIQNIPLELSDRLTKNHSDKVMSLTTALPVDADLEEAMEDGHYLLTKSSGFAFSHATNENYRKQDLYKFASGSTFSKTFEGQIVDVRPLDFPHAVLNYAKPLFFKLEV
Description: cryo-EM; small conformation, 3.3 A; endogenous ATP in Cas10; Cryo-EM: complex ~0.4 mg/mL, purified in 10 mM Tris-HCl pH 8.0, 150 mM NaCl, 3 mM DTT; grids blotted at 4 C; ternary reconstitution conditions not given. The note with it: protein: recombinant;recombinant;recombinant;recombinant; tags: ;His (N-terminal, pET-28a);;; copies: 1;3;5;1; single strand, 1 copy.

Data set [2] concerns the molecule itself. Description: cryo-EM structure; apo state: StCsm complex with 40 nt crRNA, wild-type Csm3; big (3.4 Å) and small (3.3 Å) particle populations; ~0.4 mg/mL, buffer 10 mM Tris-HCl pH 8.0, 150 mM NaCl, 3 mM DTT.
Data set [3] concerns the molecule itself. As to the kind of experiment: cryo-EM structure; target ssRNA-bound state: StCsm complex with 40 nt crRNA and 49 nt target ssRNA, Csm3 D33A; big (3.4 Å) and small (3.5 Å) particle populations; ~0.4 mg/mL, buffer 10 mM Tris-HCl pH 8.0, 150 mM NaCl, 3 mM DTT.

Where a chain is given by its changes, count along the chain named. In names and notes the source's numbering stands. Several values for one entry are separate records, joined by “and”; a condition that tells them apart may be missing. Identical values can stand only once.

ACGGAAACUUUCGUAACUGUUUAAUUCUGUUCACUUAUUC (ssRNA) [40 nt crRNA]: the binding result in data set [1] is given as “binds”.

B1: Csm3 of the Streptococcus thermophilus type III-A Csm complex (wild type, apo state) (natural protein, Streptococcus thermophilus DGCC8004)
chain: T1 sequence 3
notes: Csm3, Streptococcus thermophilus DGCC8004; also called Csm3a
Regarding B1, the “stoichiometry N” value in data set [2] is 7 and 5.

B2: Csm3 D33A of the Streptococcus thermophilus type III-A Csm complex (target ssRNA-bound state) (natural protein, Streptococcus thermophilus DGCC8004)
chain: T1 sequence 3 with D33A
notes: Csm3, Streptococcus thermophilus DGCC8004, with D33A to eliminate ssRNA cleavage
Consider B2, for which, in data set [3], the “stoichiometry N” value was 7 and 5.

B3: Csm2 of the Streptococcus thermophilus type III-A Csm complex (natural protein, Streptococcus thermophilus DGCC8004)
chain: T1 sequence 2
notes: Csm2, Streptococcus thermophilus DGCC8004; csm2 is present both on the untagged gene cassette and on the His-tag plasmid, so the 3 or 5 copies in the complex may be a mix of tagged and untagged chains; No tag removal is described; also called Csm2a; Csm2b
Take B3: the “stoichiometry N” value in data set [2] is 5 and 3.
